Source: the supplement of paper PMC5998384

Columns and labels:
HeLa Kyoto [1] = experiment: solubility in G1/S (NP-40 vs SDS abundance) (log2 ratio); higher = more soluble; settings: cell cycle stage: G1/S
HeLa Kyoto [2] = experiment: melting temperature (median over replicates), in situ; higher = more thermally stable
HeLa Kyoto [3] = experiment: solubility change mitosis vs G1/S (difference of NP-40 vs SDS log2 ratios) (log2 ratio difference); higher = more soluble in mitosis
HeLa Kyoto [4] = experiment: thermal stability score vs G1/S (z-score of summed log2 fold changes over temperatures); higher = more thermally stable than in G1/S
[5] = cell cycle stage: early G1 (4.5 h after nocodazole release)
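Wherever melting temperature (median over replicates), in situ is given: HeLa Kyoto cells synchronized by double thymidine or nocodazole block, proteins quantified by TMT10plex mass spectrometry, three independent biological replicates.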
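Wherever solubility change mitosis vs G1/S (difference of NP-40 vs SDS log2 ratios) is given: synchronized HeLa Kyoto cells (double thymidine block for G1/S, nocodazole release for mitosis), protein amounts in NP-40 versus SDS lysates quantified by mass spectrometry, three biological replicates.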
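Wherever solubility in G1/S (NP-40 vs SDS abundance) is given: HeLa Kyoto cells arrested at G1/S by double thymidine block, proteins quantified by TMT10plex mass spectrometry in mild NP-40 versus SDS extracts, three biological replicates.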
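Wherever thermal stability score vs G1/S (z-score of summed log2 fold changes over temperatures) is given: synchronized HeLa Kyoto cells, proteins quantified by TMT10plex mass spectrometry, three biological replicates, mitosis taken 0.5 h after nocodazole release, G1/S directly after double thymidine block.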

Substance | solubility in G1/S (log2) (HeLa Kyoto [1]) | melting temperature (HeLa Kyoto [2]; cell cycle stage: G1/S) [°C] | melting temperature (HeLa Kyoto [2]; cell cycle stage: mitosis) [°C] | solubility change mitosis (log2) (HeLa Kyoto [3]) | thermal stability score (HeLa Kyoto [4]; [5]) | thermal stability score (HeLa Kyoto [4]; cell cycle stage: mitosis)
MDNMSITNTPTSNDACLSIVHSLMCHRQGGESETFAKRAIESLVKKLKEKKDELDSLITAITTNGAHPSKCVTIQRTLDGRLQVAGRKGFPHVIYARLWRWPDLHKNELKHVKYCQYAFDLKCDSVCVNPYHYERVVSPGIDLSGLTLQSNAPSSMMVKDEYVHDFEGQPSLSTEGHSIQTIQHPPSNRASTETYSTPALLAPSESNATSTANFPNIPVASTSQPASILGGSHSEGLLQIASGPQPGQQQNGFTGQPATYHHNSTTTWTGSRTAPYTPNLPHHQNGHLQHHPPMPPHPGHYWPVHNELAFQPPISNHPAPEYWCSIAYFEMDVQVGETFKVPSSCPIVTVDGYVDPSGGDRFCLGQLSNVHRTEAIERARLHIGKGVQLECKGEGDVWVRCLSDHAVFVQSYYLDREAGRAPGDAVHKIYPSAYIKVFDLRQCHRQMQQQAATAQAAAAAQAAAVAGNIPGPGSVGGIAPAISLSAAAGIGVDDLRRLCILRMSFVKGWGPDYPRQSIKETPCWIEIHLHRALQLLDEVLHTMPIADPQPLD [SMAD4] | -0.0138 | 51.3 | 50.9 | -0.03 | 0.424 | 0.695
VPS13A | -0.236 | 53.6 | 53.7 | -0.144 | -1.93 | -1.94
MLPAALLRRPGLGRLVRHARAYAEAAAAPAAASGPNQMSFTFASPTQVFFNGANVRQVDVPTLTGAFGILAAHVPTLQVLRPGLVVVHAEDGTTSKYFVSSGSIAVNADSSVQLLAEEAVTLDMLDLGAAKANLEKAQAELVGTADEATRAEIQIRIEANEALVKALE [ATP5D] | 0.603 | 55.7 | 54.5 | -0.0082 | -2.35 | -1.13
MLLLAAAFLVAFVLLLYMVSPLISPKPLALPGAHVVVTGGSSGIGKCIAIECYKQGAFITLVARNEDKLLQAKKEIEMHSINDKQVVLCISVDVSQDYNQVENVIKQAQEKLGPVDMLVNCAGMAVSGKFEDLEVSTFERLMSINYLGSVYPSRAVITTMKERRVGRIVFVSSQAGQLGLFGFTAYSASKFAIRGLAEALQMEVKPYNVYITVAYPPDTDTPGFAEENRTKPLETRLISETTSVCKPEQVAKQIVKDAIQGNFNSSLGSDGYMLSALTCGMAPVTSITEGLQQVVTMGLFRTIALFYLGSFDSIVRRCMMQREKSENADKTA [KDSR] | -0.701 | 60 | 57.9 | -0.0925 | -2.49 | -3.38
MLSSTDFTFASWELVVRVDHPNEEQQKDVTLRVSGDLHVGGVMLKLVEQINISQDWSDFALWWEQKHCWLLKTHWTLDKYGVQADAKLLFTPQHKMLRLRLPNLKMVRLRVSFSAVVFKAVSDICKILNIRRSEELSLLKPSGDYFKKKKKKDKNNKEPIIEDILNLESSPTASGSSVSPGLYSKTMTPIYDPINGTPASSTMTWFSDSPLTEQNCSILAFSQPPQSPEALADMYQPRSLVDKAKLNAGWLDSSRSLMEQGIQEDEQLLLRFKYYSFFDLNPKYDAVRINQLYEQARWAILLEEIDCTEEEMLIFAALQYHISKLSLSAETQDFAGESEVDEIEAALSNLEVTLEGGKADSLLEDITDIPKLADNLKLFRPKKLLPKAFKQYWFIFKDTSIAYFKNKELEQGEPLEKLNLRGCEVVPDVNVAGRKFGIKLLIPVADGMNEMYLRCDHENQYAQWMAACMLASKGKTMADSSYQPEVLNILSFLRMKNRNSASQVASSLENMDMNPECFVSPRCAKRHKSKQLAARILEAHQNVAQMPLVEAKLRFIQAWQSLPEFGLTYYLVRFKGSKKDDILGVSYNRLIKIDAATGIPVTTWRFTNIKQWNVNWETRQVVIEFDQNVFTAFTCLSADCKIVHEYIGGYIFLSTRSKDQNETLDEDLFHKLTGGQD [FERMT1] | -0.0778 | 50.2 | 49.8 | -0.199 | -0.277 | -0.501
MEDLDQSPLVSSSDSPPRPQPAFKYQFVREPEDEEEEEEEEEEDEDEDLEELEVLERKPAAGLSAAPVPTAPAAGAPLMDFGNDFVPPAPRGPLPAAPPVAPERQPSWDPSPVSSTVPAPSPLSAAAVSPSKLPEDDEPPARPPPPPPASVSPQAEPVWTPPAPAPAAPPSTPAAPKRRGSSGSVDETLFALPAASEPVIRSSAENMDLKEQPGNTISAGQEDFPSVLLETAASLPSLSPLSAASFKEHEYLGNLSTVLPTEGTLQENVSEASKEVSEKAKTLLIDRDLTEFSELEYSEMGSSFSVSPKAESAVIVANPREEIIVKNKDEEEKLVSNNILHNQQELPTALTKLVKEDEVVSSEKAKDSFNEKRVAVEAPMREEYADFKPFERVWEVKDSKEDSDMLAAGGKIESNLESKVDKKCFADSLEQTNHEKDSESSNDDTSFPSTPEGIKDRSGAYITCAPFNPAATESIATNIFPLLGDPTSENKTDEKKIEEKKAQIVTEKNTSTKTSNPFLVAAQDSETDYVTTDNLTKVTEEVVANMPEGLTPDLVQEACESELNEVTGTKIAYETKMDLVQTSEVMQESLYPAAQLCPSFEESEATPSPVLPDIVMEAPLNSAVPSAGASVIQPSSSPLEASSVNYESIKHEPENPPPYEEAMSVSLKKVSGIKEEIKEPENINAALQETEAPYISIACDLIKETKLSAEPAPDFSDYSEMAKVEQPVPDHSELVEDSSPDSEPVDLFSDDSIPDVPQKQDETVMLVKESLTETSFESMIEYENKEKLSALPPEGGKPYLESFKLSLDNTKDTLLPDEVSTLSKKEKIPLQMEELSTAVYSNDDLFISKEAQIRETETFSDSSPIEIIDEFPTLISSKTDSFSKLAREYTDLEVSHKSEIANAPDGAGSLPCTELPHDLSLKNIQPKVEEKISFSDDFSKNGSATSKVLLLPPDVSALATQAEIESIVKPKVLVKEAEKKLPSDTEKEDRSPSAIFSAELSKTSVVDLLYWRDIKKTGVVFGASLFLLLSLTVFSIVSVTAYIALALLSVTISFRIYKGVIQAIQKSDEGHPFRAYLESEVAISEELVQKYSNSALGHVNCTIKELRRLFLVDDLVDSLKFAVLMWVFTYVGALFNGLTLLILALISLFSVPVIYERHQAQIDHYLGLANKNVKDAMAKIQAKIPGLKRKAE [RTN4] | -0.0792 | 56.6 | 56.7 | -0.155 | -0.746 | -1.43
MSGPTWLPPKQPEPARAPQGRAIPRGTPGPPPAHGAALQPHPRVNFCPLPSEQCYQAPGGPEDRGPAWVGSHGVLQHTQGLPADRGGLRPGSLDAEIDLLSSTLAELNGGRGHASRRPDRQAYEPPPPPAYRTGSLKPNPASPLPASPYGGPTPASYTTASTPAGPAFPVQVKVAQPVRGCGPPRRGASQASGPLPGPHFPLPGRGEVWGPGYRSQREPGPGAKEEAAGVSGPAGRGRGGEHGPQVPLSQPPEDELDRLTKKLVHDMNHPPSGEYFGQCGGCGEDVVGDGAGVVALDRVFHVGCFVCSTCRAQLRGQHFYAVERRAYCEGCYVATLEKCATCSQPILDRILRAMGKAYHPGCFTCVVCHRGLDGIPFTVDATSQIHCIEDFHRKFAPRCSVCGGAIMPEPGQEETVRIVALDRSFHIGCYKCEECGLLLSSEGECQGCYPLDGHILCKACSAWRIQELSATVTTDC [TRIP6] | -0.106 | 52 | 52 | -0.132 | 0.24 | -0.443
MSGIKKQKTENQQKSTNVVYQAHHVSRNKRGQVVGTRGGFRGCTVWLTGLSGAGKTTISFALEEYLVSHAIPCYSLDGDNVRHGLNRNLGFSPGDREENIRRIAEVAKLFADAGLVCITSFISPFAKDRENARKIHESAGLPFFEIFVDAPLNICESRDVKGLYKRARAGEIKGFTGIDSDYEKPETPERVLKTNLSTVSDCVHQVVELLQEQNIVPYTIIKDIHELFVPENKLDHVRAEAETLPSLSITKLDLQWVQVLSEGWATPLKGFMREKEYLQVMHFDTLLDDGVINMSIPIVLPVSAEDKTRLEGCSKFVLAHGGRRVAILRDAEFYEHRKEERCSRVWGTTCTKHPHIKMVMESGDWLVGGDLQVLEKIRWNDGLDQYRLTPLELKQKCKEMNADAVFAFQLRNPVHNGHALLMQDTRRRLLERGYKHPVLLLHPLGGWTKDDDVPLDWRMKQHAAVLEEGVLDPKSTIVAIFPSPMLYAGPTEVQWHCRSRMIAGANFYIVGRDPAGMPHPETKKDLYEPTHGGKVLSMAPGLTSVEIIPFRVAAYNKAKKAMDFYDPARHNEFDFISGTRMRKLAREGENPPDGFMAPKAWKVLTDYYRSLEKN [PAPSS2] | -0.0222 | 52.2 | 53.1 | -0.108 | 2.13 | 3.19
MAIKSIASRLRGSRRFLSGFVAGAVVGAAGAGLAALQFFRSQGAEGALTGKQPDGSAEKAVLEQFGFPLTGTEARCYTNHALSYDQAKRVPRWVLEHISKSKIMGDADRKHCKFKPDPNIPPTFSAFNEDYVGSGWSRGHMAPAGNNKFSSKAMAETFYLSNIVPQDFDNNSGYWNRIEMYCRELTERFEDVWVVSGPLTLPQTRGDGKKIVSYQVIGEDNVAVPSHLYKVILARRSSVSTEPLALGAFVVPNEAIGFQPQLTEFQVSLQDLEKLSGLVFFPHLDRTSDIRNICSVDTCKLLDFQEFTLYLSTRKIEGARSVLRLEKIMENLKNAEIEPDDYFMSRYEKKLEELKAKEQSGTQIRKPS [EXOG] | 0.21 | 52.8 | 51.3 | -0.0598 | 2.74 | -1.52
MAATAAAVVAEEDTELRDLLVQTLENSGVLNRIKAELRAAVFLALEEQEKVENKTPLVNESLKKFLNTKDGRLVASLVAEFLQFFNLDFTLAVFQPETSTLQGLEGRENLARDLGIIEAEGTVGGPLLLEVIRRCQQKEKGPTTGEGALDLSDVHSPPKSPEGKTSAQTTPSKIPRYKGQGKKKTSGQKAGDKKANDEANQSDTSVSLSEPKSKSSLHLLSHETKIGSFLSNRTLDGKDKAGLCPDEDDMEGDSFFDDPIPKPEKTYGLRKEPRKQAGSLASLSDAPPLKSGLSSLAGAPSLKDSESKRGNTVLKDLKLISDKIGSLGLGTGEDDDYVDDFNSTSHRSEKSEISIGEEIEEDLSVEIDDINTSDKLDDLTQDLTVSQLSDVADYLEDVA [FGFR1OP] | 0.156 | 52 | 52.4 | -0.0261 | -0.228 | -0.703
MKARRNKKQIPSFRKLIKTSKVKLENKLKNKQFKQQSTLKKYRKEQRKLRQAVKDAVSKKPIPLENPKEKRPGKRIEREEEEEEEALPLDMMDEDDLQLMKDLGQRVSFLTRDLSSSEPVHAKKRKHERIIDKYEKIPRTLQTAPEKELIHLLPIKDKSGIIPQTREKPVTDSNKDEEDQEEERELEEEIIEDPIQELTIEEHLIERKKKLQEKKMHIAALASAILSDPENNIKKLKELRSMLMEQDPDVAVTVRKLVIVSLMELFKDITPSYKIRPLTEAEKSTKTRKETQKLREFEEGLVSQYKFYLENLEQMVKDWKQRKLKKSNVVSLKAYKGLAEVAVKSLCELLVALPHFNFHNNIIVLIVPLMNDMSKLISEMCCEAVKKLFKQDKLGQASLGVIKVISGFVKGRNYEVRPEMLKTFLCLRIKEVEVKKDTEDINKPKKFMTFKEKRKSLSRMQRKWKKAEEKLERELREAEASESTEKKLKLHTETLNIVFVTYFRILKKAQRSPLLPAVLEGLAKFAHLINVEFFDDLLVVLHTLIESGDLSYQESLHCVQTAFHILSGQGDVLNIDPLKFYTHLYKTLFKLHAGATNEGVEIVLQCLDVMLTKRRKQVSQQRALAFIKRLCTLALHVLPNSSIGILATTRILMHTFPKTDLLLDSESQGSGVFLPELDEPEYCNAQNTALWELHALRRHYHPIVQRFAAHLIAGAPSEGSGALKPELSRRSATELFEAYSMAEMTFNPPVESSNPKIKGKFLQGDSFLNEDLNQLIKRYSSEVATESPLDFTKYLKTSLH [NOC3L] | -1.96 | 49.2 | 50 | 1.29 | 0.294 | 0.855
